In the supplement of paper PMC10126150:
± gives the standard deviation of the averaged measurements.

Tested on: ATP
Test: switch fluorescence ratio, 500 uM ATP over buffer (Cy3 cluster intensity, sum of 5 cycles each) (fold (ratio)); higher = stronger signal-on switching upon ATP binding; sequences stand for … in TCGTCGGCAGCGTCAGATGTGTATAAGAGACAGTTTTTTTTTTTTTTTTTTTTTTTTT…TC
Conditions: aptamer strand: ATP DNA aptamer (quencher-CACCTGGGGGAGTATTGCGGAGGAAGG + anchor), 100 nM annealed; ATP concentration: 500 uM
Method in brief: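 Cy3-labelled switching-strand clusters on a modified Illumina MiSeq flow-cell were annealed to 100 nM quencher-labelled ATP aptamer, imaged in selection buffer, then imaged after 15 min with 500 uM ATP at 22 °C. Five buffer/ATP cycles ran, with NaOH stripping and re-annealing between them. The fluorescence ratio is summed target-cycle over summed buffer-cycle Cy3 intensity per cluster, averaged per switch-domain sequence. Clusters outside 100-1000 RFU were excluded.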
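Note: ATP exposure 15 min at 22 °C before imaging.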

Sequence | switch fluorescence ratio
ACTACTACCA | 1.31 ± 0.048
ACTAGACTAG | 0.984 ± 0.044
ACTAGGGGGG | 1.01 ± 0.022
ACTAGGGTAT | 0.982 ± 0.061
ACTAGGGTGC | 1.14 ± 0.014
ACTAGGGTTG | 0.993 ± 0.02
ACTAGGTATT | 1.03 ± 0.033
ACTAGGTCAT | 1.03 ± 0.017
ACTAGGTGGG | 1.01 ± 0.041
ACTAGTAGTC | 0.994 ± 0.012
ACTAGTGCGG | 1.01 ± 0.028
ACTAGTTGTC | 0.991 ± 0.033
ACTATATGAT | 1.08 ± 0.043
ACTATATTGG | 1.065 ± 0.0095
ACTATCGGTT | 1.07 ± 0.075
ACTATGCTTT | 1.021 ± 0.0059
ACTATGGATG | 1.02 ± 0.036
ACTATGGGGG | 0.995 ± 0.036
ACTATGTAGG | 0.979 ± 0.013
ACTATTGGTA | 1.03 ± 0.046
ACTATTTGCA | 1.019 ± 0.0057
ACTCAATGCA | 1.06 ± 0.045
ACTCACGGGA | 1.46 ± 0.36
ACTCAGCGCG | 1.08 ± 0.029
ACTCATATAT | 1.02 ± 0.0045

Sequence | switch fluorescence ratio
ACTCATGACG | 1.045 ± 0.0025
ACTCATTTAC | 1.21 ± 0.096
ACTCGATACG | 1.07 ± 0.037
ACTCGGACCG | 1.0425 ± 0.00055
ACTCGGGGTG | 0.998 ± 0.025
ACTCGGTGGG | 1.01 ± 0.035
ACTCGGTTTG | 0.949 ± 0.067
ACTCGTTGTC | 1.02 ± 0.035
ACTCGTTTCG | 1 ± 0.013
ACTCTAGGTG | 3.47 ± 0.091
ACTCTGGGTC | 1.07 ± 0.016
ACTCTGGTCA | 0.986 ± 0.027
ACTCTGTTTT | 1.01 ± 0.012
ACTCTTACTT | 1.157 ± 0.0042
ACTCTTAGGG | 1.03 ± 0.027
ACTCTTTCGG | 1 ± 0.063
ACTGAGTGGC | 1.06 ± 0.029
ACTGATACGT | 1.12 ± 0.017
ACTGATGAAG | 0.991 ± 0.049
ACTGCAAGGA | 1.029 ± 0.0078
ACTGCGAATA | 1.41 ± 0.021
ACTGCTGGGA | 1.01 ± 0.015
ACTGGATCAC | 1.099 ± 0.0035
ACTGGATTGG | 1.01 ± 0.042
ACTGGATTTG | 0.9885 ± 0.002

Sequence | switch fluorescence ratio
ACTGGCATCC | 1.08 ± 0.029
ACTGGCGGCG | 1 ± 0.012
ACTGGCGTGC | 1.04 ± 0.07
ACTGGGAGTG | 1 ± 0.042
ACTGGGATC | 1.01 ± 0.019
ACTGGGATCA | 1.03 ± 0.02
ACTGGGGAGG | 1.01 ± 0.022
ACTGGGGGAA | 0.97 ± 0.018
ACTGGGGGAG | 1.02 ± 0.015
ACTGGTTATC | 1.02 ± 0.046
ACTGGTTATT | 1 ± 0.016
ACTGGTTCGT | 0.998 ± 0.012
ACTGTAAGGC | 1.07 ± 0.02
ACTGTAATTC | 1.19 ± 0.041
ACTGTAATTT | 1.18 ± 0.027
ACTGTACGCA | 1.51 ± 0.086
ACTGTGCACC | 1.05 ± 0.052
ACTGTGCCGG | 1.02 ± 0.043
ACTGTGGGGC | 0.9788 ± 0.0057
ACTGTGTTAT | 0.983 ± 0.02
ACTGTTAGTA | 1.01 ± 0.011
ACTGTTATAT | 1.044 ± 0.0053
ACTTAAAAAC | 1.08 ± 0.055
ACTTACGGCG | 1.168 ± 0.0051
ACTTAGCAGG | 1.08 ± 0.013

Sequence | switch fluorescence ratio
ACTTAGGCG | 1.05 ± 0.086
ACTTAGGGGG | 1.01 ± 0.024
ACTTCAGGGA | 1.01 ± 0.024
ACTTCGGGGC | 1.12 ± 0.027
ACTTGAACGG | 1.16 ± 0.034
ACTTGAAGGT | 1.02 ± 0.017
ACTTGCTTTA | 1.04 ± 0.017
ACTTGGGAAT | 1.03 ± 0.02
ACTTGTGAAG | 1.0247 ± 0.00063
ACTTGTGCAG | 0.978 ± 0.026
ACTTGTGCTT | 0.9728 ± 0.0027
ACTTGTGGCT | 1.01 ± 0.018
ACTTGTTATG | 0.996 ± 0.028
ACTTGTTTAT | 0.981 ± 0.032
ACTTGTTTTT | 0.99 ± 0.033
ACTTTACGGC | 1.286 ± 0.0091
ACTTTAGCAG | 1.034 ± 0.0063
ACTTTCAGCC | 1.03 ± 0.017
ACTTTCGGTT | 1.003 ± 0.0023
ACTTTGATTG | 0.982 ± 0.024
ACTTTGCCAC | 1.18 ± 0.016
ACTTTGCTAG | 1.03 ± 0.024
ACTTTGGCGT | 1.03 ± 0.014
ACTTTGGGTT | 1.01 ± 0.023
ACTTTGGTGG | 1 ± 0.029

Sequence | switch fluorescence ratio
ACTTTGTATG | 1 ± 0.017
ACTTTTACTC | 1.16 ± 0.014
ACTTTTGCGG | 1.021 ± 0.0092
ACTTTTTGGC | 0.975 ± 0.022
ACTTTTTTT | 1 ± 0.0022
AGAAAAAGGT | 1.01 ± 0.032
AGAAAAGCAG | 1.02 ± 0.015
AGAAAATAGA | 0.9789 ± 0.0084
AGAAAATTAG | 1.02 ± 0.039
AGAAAATTGT | 1.01 ± 0.025
AGAAAATTTT | 1.03 ± 0.031
AGAAACAAAC | 1.041 ± 0.0083
AGAAAGCGCG | 1.05 ± 0.019
AGAAAGGGGC | 1.31 ± 0.31
AGAAAGGGTT | 0.98 ± 0.022
AGAAAGGTAT | 1.11 ± 0.25
AGAAAGTCAA | 1.0199 ± 1.9e-05
AGAAATCGGA | 1.038 ± 0.0056
AGAACAGCAT | 1.01 ± 0.021
AGAACAGGTG | 3.18 ± 0.27
AGAACTCACC | 1.19 ± 0.049
AGAACTCTTT | 1.02 ± 0.022
AGAAGAAGTA | 0.9955 ± 0.0035
AGAAGCTAAG | 0.996 ± 0.015
AGAAGGAGGT | 0.9874 ± 0.0089

Sequence | switch fluorescence ratio
AGAAGGCCGG | 0.98 ± 0.056
AGAAGGCGCG | 1.01 ± 0.038
AGAAGGCGGG | 0.985 ± 0.029
AGAAGGGGAC | 1.02 ± 0.026
AGAAGGGGG | 0.968 ± 0.022
AGAAGGGGGC | 0.989 ± 0.062
AGAAGGGGGT | 1.02 ± 0.035
AGAAGGGTTA | 1.01 ± 0.017
AGAAGGTATG | 1.0001 ± 0.0006
AGAAGTAAGA | 0.998 ± 0.0065
AGAAGTGATA | 0.976 ± 0.023
AGAAGTGGTC | 1.01 ± 0.031
AGAATAATGG | 1 ± 0.022
AGAATCGACG | 0.993 ± 0.056
AGAATCGAGT | 1.01 ± 0.025
AGAATCTTTC | 1.05 ± 0.071
AGAATGGAGA | 1 ± 0.013
AGAATGGATC | 1.01 ± 0.012
AGAATGTCGA | 0.968 ± 0.068
AGAATTAAGG | 1.01 ± 0.045
AGAATTACTT | 1.001 ± 0.0092
AGAATTAGAG | 0.969 ± 0.054
AGAATTCCCT | 1.011 ± 0.01
AGAATTCTAG | 1.01 ± 0.022
AGAATTGGCA | 1 ± 0.037

Sequence | switch fluorescence ratio
AGAATTTAAA | 0.992 ± 0.032
AGACACTGAC | 1.45 ± 0.028
AGACATAGAG | 1 ± 0.011
AGACCCTTTT | 0.994 ± 0.037
AGACCGAGAC | 1.18 ± 0.079
AGACCTGGCC | 1.14 ± 0.011
AGACGAAGT | 1 ± 0.019
AGACGAGAAT | 1.09 ± 0.14
AGACGATTAG | 0.977 ± 0.03
AGACGGACGT | 1.05 ± 0.013
AGACGGGTAG | 0.968 ± 0.032
AGACGTAGTA | 1.03 ± 0.014
AGACGTAGTG | 0.99 ± 0.029
AGACGTCACT | 1.77 ± 0.12
AGACTCAATG | 0.988 ± 0.07
AGACTCCAAG | 1 ± 0.059
AGACTGACAA | 1.1 ± 0.021
AGACTGGTTG | 0.993 ± 0.035
AGACTTTAGT | 1.01 ± 0.036
AGACTTTGAG | 1.03 ± 0.061
AGAGAAGATG | 1.01 ± 0.034
AGAGAAGGTC | 1.017 ± 0.0086
AGAGAAGTGA | 0.986 ± 0.032
AGAGAATGGT | 0.999 ± 0.027
AGAGACACAT | 1 ± 0.0086

Sequence | switch fluorescence ratio
AGAGACATGC | 0.923 ± 0.085
AGAGACCCCG | 0.971 ± 0.039
AGAGACGAAT | 1.013 ± 0.0085
AGAGAGGAGT | 0.982 ± 0.021
AGAGAGGGCG | 0.888 ± 0.14
AGAGAGGGGC | 0.971 ± 0.014
AGAGAGGGGT | 1.01 ± 0.047
AGAGAGGGTG | 1.06 ± 0.048
AGAGATGTAG | 0.966 ± 0.023
AGAGATTCAC | 1.03 ± 0.013
AGAGCGTTGT | 0.977 ± 0.023
AGAGCTGGGA | 0.965 ± 0.015
AGAGGAGGTG | 1.02 ± 0.03
AGAGGAGTGC | 0.958 ± 0.056
AGAGGCCAAC | 1.002 ± 0.0062
AGAGGCCGGG | 1 ± 0.032
AGAGGCCGTT | 0.9965 ± 0.0074
AGAGGCGGGA | 0.956 ± 0.11
AGAGGCTTAG | 1 ± 0.066
AGAGGGAAAC | 1.14 ± 0.3
AGAGGGAGAT | 0.9876 ± 0.0098
AGAGGGATTA | 0.999 ± 0.037
AGAGGGGGTT | 0.971 ± 0.035
AGAGGGGTAA | 0.998 ± 0.029
AGAGGGGTAT | 1.04 ± 0.017
